Experimental data: patent US5525479A, “Fluorescence assay of Ras farnesyl protein transferase” (Merck & Co., Inc., priority 1994, dated 1996)
Ends that are not written are not given here. Peptide text beside a SMILES is read from it. * marks the point of attachment. Dansyl = CN(C)c1cccc2c(S(=O)(=O)*)cccc12

Molecular target: recombinant human farnesyl:protein transferase (hFPTase) (Homo sapiens, UniProt P49354+P49356)
Assay: continuous fluorescence assay of farnesyl:protein transferase activity with dansylated acceptor peptide
Assay type: biochemical
Settings: for substrate of FPTase (fluorescence enhancement): other dansylated peptides synthesized to optimize the sensitivity of the assay
Protocol: FIG. 1A is a fluorescence progress curve, A, of the reaction catalyzed by recombinant human farnesyl:protein transferase (hFPTase; 0.5 nM) using Ds-GlyCysValLeySer (SEQ.ID.NO.:1) (1.0 μM) as substrate in the presence of a saturating concentration of farnesyl diphosphate ([…]) in assay buffer (50 mM Tris-HCl, pH 7.5, 5 mM DTT, 5 mM MgCl2, 10 μM ZnCl2, and 0.2% octyl-β-D-glucopyranoside) at 30° C. Fluorescence data in the integration mode were obtained on a SPEX Fluorolog Model F112X1 spectrofluorimeter with λex =340 nm (slit width=4 nm) and λem =505 nm (slit width=8 nm) using 4 mm square microcells. Concentrations of stock solutions of Ds-GlyCysValLeuSer (SEQ.ID.NO.: 1 ) (in 20 mM Tris-CHl, pH 7.5, 10 mM EDTA) were calculated from the extinction coefficient of the dansyl moiety at 340 nm(ε=4250 M^-1 cm^-1).
Double reciprocal plot of initial velocity versus Ds-GlyCysValLeuSer (SEQ.ID.NO.:1) concentration in the presence of (.cndot.)0, and 50 nM CysIlePheMet (SEQ.ID.NO.:2) at 30° C. Reactions (400 μL) contained hFPTase(1 nM), FPP (10 μM) and varying concentrations of Ds-GlyCysValLeuSer (SEQ.ID.NO.:1) with or without 50 nM peptide CysIlePheMet (SEQ.ID.NO.:2) in assay buffer (see FIG. 1).
The continuous FPTase activity assay is based on the enhancement of fluorescence and the accompanying shift to lower wavelength emission maximum of certain fluorophores, like dansyl, upon change from a polar to non-polar molecular environment (Lakowicz, Principles of Fluorescence Spectroscopy, Plenum Press, New York, (1983)). The present invention utilizes an acceptor peptide substrate with an environmentally sensitive fluorescence probe positioned proximally to the reaction center. Substrate pentapeptide N-dansyl-GlyCysValLeuSer(Ds Gly CysValLeuSer) (SEQ.ID.NO.1) and expected product N-dansyl-Gly(S-farnesyl-Cys)ValLeuSer(Ds-Gly[f-Cys]LeuSer were synthesized by standard methods.
(Pompliano, et al., Biochemistry, 31, 3800-3807 (1992)).

Compound | substrate of FPTase (fluorescence enhancement) | also measured
Ds-GlyCysCysValLeuSer | substrates | 
Ds-CysValLeuSer (Dansyl-CVLS) [dansylated peptide] | substrates | 
Ds-CysValIleMet (Dansyl-CVIM) [dansylated peptide] | substrates | 
CysIlePheMet (CIFM) [reference compound] |  | Ki (competitive inhibitor of Ds-GlyCysValLeuSer binding, hFPTase 1 nM, FPP 10 μM, 30° C.): 9 nM
Ds-LysCysValLeuSer (Dansyl-KCVLS) [dansylated peptide] | substrates | 
CC(C)C[C@H](NC(=O)[C@@H](NC(=O)[C@H](CS)NC(=O)CNS(=O)(=O)c1cccc2c(N(C)C)cccc12)C(C)C)C(=O)N[C@@H](CO)C(=O)O [Ds-GlyCysValLeuSer, N-dansyl-L-glycinyl-L-cysteinyl-L-valinyl-L-leucinyl-L-serine] (Dansyl-GCVLS-OH) |  | kcat (Ds-GlyCysValLeuSer as acceptor substrate, Michaelis-Menten kinetics, assay buffer pH 7.5, 30° C.): 0.5 S^-1
CC(C)=CCC/C(C)=C/CC/C(C)=C/CO[P@@](=O)(O)OP(=O)(O)O (stereo in doubt) [FPP, farnesyl diphosphate, reference compound] |  | Km (in the presence of Ds-GlyCysValLeuSer as acceptor substrate, read-out: KM (FPP)): 0.03 µM
